{"source": "patent US5739281", "biological_target": "natural affinity purified heavy chain class I K^d molecules", "test": "binding to natural class I heavy chain molecules, format not given (follows the binding inhibition experiment)", "data": [{"substance": "Recombinant murine β2-microglobulin", "values": [{"measurement": "affinity, times lower than that of the (human) β2-microglobulin", "value": 5, "unit": "times lower"}]}]}
